Results from the supplement of paper PMC7125110.
± gives the standard error. For some of these results: This sample holds only a part of the variants without activity.

B1: glmS ribozyme (parent)
chain: AUAAAAGCGCCAGAACUACAGAAAUGUAGUUGACGAGGAGGAGGUUUAUCGAAUUUUCGGCGGAUGCCUCCAAA

Columns and labels:
Conditions in all cases: with glucosamine-6-phosphate
[1] = variants of: B1; experiment: kcat; higher = faster cleavage; RNA array
In short: (§1)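 Tiles bearing barcoded ribozyme variants, transcribed in situ by E. coli RNA polymerase on sequenced MiSeq chips, were imaged over ~14 h at 37 °C using a hybridised Cy3 probe. Glucosamine-6-phosphate was supplied at 40 μM to 10 mM in HEPES/KCl/Mg(OAc)2 buffer. kobs came from one- or two-exponential decay fits to normalised per-tile medians, and weighted Michaelis–Menten fits then provided kcat and KM.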

[2] = variants of: B1; experiment: self-cleavage kobs at 10000 uM GlcN6P; higher = faster cleavage; RNA array
In short: as §1

[3] = variants of: B1; experiment: self-cleavage kobs at 40 uM GlcN6P; higher = faster cleavage; RNA array
In short: as §1

[4] = variants of: B1; experiment: KM; higher = weaker cofactor use; RNA array
In short: as §1

[5] = variants of: B1; experiment: self-cleavage kobs at 160 uM GlcN6P; higher = faster cleavage; RNA array
In short: as §1

[6] = variants of: B1; experiment: self-cleavage kobs at 640 uM GlcN6P; higher = faster cleavage; RNA array
In short: as §1

[7] = variants of: B1; experiment: self-cleavage kobs at 2500 uM GlcN6P; higher = faster cleavage; RNA array
In short: as §1

Variant | kcat [1] [s⁻¹] | self-cleavage kobs at 10000 uM GlcN6P [2] [s⁻¹] | self-cleavage kobs at 40 uM GlcN6P [3] [s⁻¹] | KM [4] [µM] | self-cleavage kobs at 160 uM GlcN6P [5] [s⁻¹] | self-cleavage kobs at 640 uM GlcN6P [6] [s⁻¹] | self-cleavage kobs at 2500 uM GlcN6P [7] [s⁻¹]
G13A G60U | < 1e-05 | < 1e-05 |  |  |  |  | 
U47A C61U | 2.03e-05 ± 6.6e-06 |  | < 1e-05 |  |  |  | 
A15C G32C A53C | 2.15e-05 ± 1.1e-06 |  |  |  |  |  | 
A39G C70A | 0.000304 ± 4.8e-05 | 0.000303 ± 5e-05 | 6.17e-05 ± 1.2e-05 | 158 ± 60 | 0.000136 ± 3.1e-05 | 0.000306 ± 4.3e-05 | 0.000172 ± 7.3e-05
A12U U69G C70G | 2.63e-05 ± 1.3e-05 |  |  |  | < 1e-05 |  | 
G59A U69G | 1.93e-05 ± 4.9e-06 |  |  |  |  |  | 
U31G G59A C70G | 3.81e-05 ± 8.1e-06 |  |  |  |  |  | 3.86e-05 ± 1.5e-05
C11U A33C | 1.8e-05 ± 2.7e-06 |  |  | 8710 ± 2600 |  |  | 
A36U U47G G51U | < 1e-05 | < 1e-05 |  |  |  |  | 
U46C U56C | 0.000648 ± 3.9e-05 | 0.000596 ± 7.5e-05 |  | 866 ± 190 |  | 0.000246 ± 7.8e-05 | 0.000514 ± 0.00014
A52C C67A C68G | 2.5e-05 ± 1.2e-05 |  |  |  |  |  | 
A14G C50A | 7.1e-05 ± 2e-06 | 5.99e-05 ± 7e-06 |  | 1890 ± 220 |  |  | 3.98e-05 ± 9.6e-06
C16U A64C | 0.000145 ± 2.5e-05 | 0.000113 ± 1.6e-05 |  | 2130 ± 970 |  | 2.44e-05 ± 1.1e-05 | 9.71e-05 ± 1.7e-05
G32C U46G | 1.21e-05 ± 4.8e-07 |  |  | 349 ± 150 |  |  | 
A15G A39U | 0.0505 ± 0.019 | 0.0387 ± 0.0051 | 0.0006 ± 7.9e-05 | 4740 ± 2300 | 0.00146 ± 0.00026 | 0.00551 ± 0.001 | 0.0136 ± 0.0025
U31C U54G | 0.00413 ± 0.0012 | 0.00388 ± 0.00065 | 0.000143 ± 2.5e-05 | 1770 ± 710 | 0.000283 ± 4.9e-05 | 0.00116 ± 0.00017 | 0.00211 ± 0.0004
A12U U65A | 0.0089 ± 0.0024 | 0.00799 ± 0.0012 | 0.000192 ± 2.4e-05 | 2460 ± 840 | 0.000483 ± 5.8e-05 | 0.00176 ± 0.00027 | 0.00391 ± 0.00071
U55C C67G | < 1e-05 |  | < 1e-05 |  |  |  | 
U55C C67A | 0.000193 ± 6.1e-05 | 0.00029 ± 5.7e-05 |  |  |  | 0.000133 ± 2.3e-05 | 0.000137 ± 2.4e-05
A12G G40C | 0.000334 ± 3.5e-05 | 0.000248 ± 3.1e-05 |  | 3830 ± 720 |  | 5.37e-05 ± 1e-05 | 0.000124 ± 1.6e-05
C50U C71A | 2.1e-05 ± 3.7e-06 |  |  |  |  | 2.36e-05 ± 1.1e-05 | 2.3e-05 ± 8.6e-06
